Target: T1, RANTES(1-68), P13501
T1 chain: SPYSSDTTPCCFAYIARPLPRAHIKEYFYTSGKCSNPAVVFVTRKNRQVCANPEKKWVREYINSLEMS

B1: enzymatically deficient (E-) recombinant soluble human CD26 (sCD26) (protein)
chain: NKGTDDATADSRKTYTLTDYLKNTYRLKLYSLRWISDHEYLYKQENNILVFNAEYGNSSVFLENSTFDEFGHSINDYSISPDGQFILLEYNYVKQWRHSYTASYDIYDLNKRQLITEERIPNNTQWVTWSPVGHKLAYVWNNDIYVKIEPNLPSYRITWTGKEDIIYNGITDWVYEEEVFSAYSALWWSPNGTFLAYAQFNDTEVPLIEYSFYSDESLQYPKTVRVPYPKAGAVNPTVKFFVVNTDSLSSVTNATSIQITAPASMLIGDHYLCDVTWATQERISLQWLRRIQNYSVMDICDYDESSGRWNCLVARQHIEMSTTGWVGRFRPSEPHFTLDGNSFYKIISNEEGYRHICYFQIDKKDCTFITKGTWEVIGIEALTSDYLYYISNEYKGMPGGRNLYKIQLSDYTKVTCLSCELNPERCQYYSVSFSKEAKYYQLRCSGPGLPLYTLHSSVNDKGLRVLEDNSALDKMLQNVQMPSKKLDFIILNETKFWYQMILPPHFDKSKKYPLLLDVYAGPCSQKADTVFRLNWATYLASTENIIVASFDGRGSGYQGDKIMHAINRRLGTFEVEDQIEAARQFSKMGFVDNKRIAIWGWAYGGYVTSMVLGSGSGVFKCGIAVAPVSRWEYYDSVYTERYMGLPTPEDNLDHYRNSTVMSRAENFKQVEYLLIHGTADDNVHFQQSAQISKALVDVGVDFQAMWYTDEDHGIASSTAHQHIYTHMSHFIKQCFSLP
Question: For B1, which “hydrolysis of rhRANTES by sCD26 (ES-MS of cleavage products)” value is on record?
Answer: shortened RANTES was not generated by incubation of the chemokine with a mutant sCD26 deficient in enzyme activity

Source: patent US20030229203
